This note sets out measurements from patent US12024544B2, “CCN3 and CCN3 peptides and analogs thereof for therapeutic use” (Rosalind Franklin University of Medicine & Science, priority 2010, dated 2024).

Entries after “also recorded” stand apart in the source; their conditions may differ.

One test relates to CCN2 receptor. Put plainly: adhesion of mesangial cells to CCN2 coated plates. It counts as cell-based, rat. The following applies: 27 nM, rodent mesangial cells. The text has this:
The peptides selected above, and shown in FIG. 5, were synthesized and tested in the three different in vitro assays constructed to model fibrosis, or fibrosis-related pathology in vivo for anti-fibrotic activity. These assays have been used extensively by us and by others, and are highly predictive of related responses in vivo, including those occurring in humans. One in vitro assay, i.e., of cell adhesion in vitro was used. There is a requirement for adhesion in wound healing and fibrosis, with cells responding to the binding of CCN2 to their receptors for other critical activities. Also alteration of cell attachment and receptor binding is implicated in other non-fibrotic diseases, previously named in this application. For this adhesion assay, a well of a culture plate was coated with CCN2 protein and then rat mesangial cells were added for a defined period. […] After a standard period of incubation, the cells are washed to remove non-attached cells. These adherent cells are then removed and counted to determine the percent of the total cells that adhered. The ability of each peptide to block this binding was examined by preincubating cells with the peptide of interest. Controls were used for comparison without CCN2 coating.

A further test has as its system MMP-1. Nature of the test: MMP-1 production by human skin fibroblasts. It counts as cell-based. The text has this: (§1) To test this we used a cell culture model of skin healing/scarring, which employed the use of primary human skin fibroblasts derived from foreskins collected post circumcision. These have been used extensively in the past to grown in culture and treated with agents that are known to drive wound healing and or scarring. We were also interested in a rare form of skin fibrosis/scarring that can lead to systemic disease and death known as nephrogenic systemic fibrosis (NSF). NSF is a complication of NMR diagnostics in renal impaired patients, where gadolinium (GAD), a heavy metal, is used as a contrast agent, but in some cases appears to deposit in skin. Although the mechanism for development of skin fibrosis and subsequent systemic disease is not yet completely understood, we have developed a model that has allowed elucidation of the probable pathway to skin fibrosis (Bhagavathula, N., M. K. Dame, M. DaSilva, W. Jenkins, M. N. Aslam, P. Perone and J. Varani (2010)). “Fibroblast response to gadolinium: role for platelet-derived growth factor receptor.” Invest Radiol 45(12): 769-777). This disease is characterized as a hyperproliferative disease, and in our model it was shown that PDGF produced by resident skin fibroblasts are stimulated by GAD to increase their production of PDGF which acts to induce proliferation and the increased production of MMPs, regulators of ECM breakdown and thus turnover, including the major MMP, MMP-1. At the same time tissue inhibitors of MMPs (TIMPs) are also affected by exposure to GAD. […] It appears that local fibroblasts then respond to this increased TGF-beta by increasing their production of ECM, including predominantly collagen type 1.
(§2) We examined the role of CCN3 and CCNp in fibroproliferative/fibrotic responses in human dermal fibroblasts exposed to Omniscan, one of the gadolinium-based contrast agents associated with development of nephrogenic systemic fibrosis. These studies were carried out as we have previously described (Riser, B. L., N. Bhagavathula, P. Perone, K. Garchow, Y. Xu, G. J. Fisher, F. Najmabadi, D. Attili and J. Varani (2012)). “Gadolinium-induced fibrosis is counter-regulated by CCN3 in human dermal fibroblasts: a model for potential treatment of nephrogenic systemic fibrosis.” J Cell Commun Signal 6(2): 97-105.). In our studies, human dermal fibroblasts were exposed to Omniscan; or to PDGF and TGF-β1 as controls. Cellular proliferation was assessed along with MMP-1 (by ELISA and gelatin zymography), TIMP-1 (by ELISA) and COL1 (by ELISA) in the absence and presence of CCN3 and CCNp. CCN3 and CCNp38 was added to cells at 10 nM concentration and at the same time as PDGF. In parallel, CCN3 production was assessed in control and Omniscan-treated cells. In most case the results shown (each bar) are the mean of 3-5 separate experiments, using fibroblasts from different donors. CCN3 was produced in our laboratory from the human embryonic kidney cell line (HEK-293) transfected with the complete human CCN3 gene, and producing an approximate 55 kDa, full-length CCN3 product. A second source of CCN3 was obtained from Pepro Tech Corporation (Rocky Hill, NJ) and is produced in a prokaryote cell line.
Next we created and tested for efficacy, additional CCNp including those with the cysteines intact (native sequence) from CCNp37 and CCNp38 and those that were modified by either shortening the peptide by 1 or 2 amino acids or lengthening by one amino acid. These agents were added to human skin fibroblasts in increasing concentrations from 1 nM to 100 nM and compared to the equal concentration of CCN3 (SEQ. ID. NO: 67). They were added just prior to the addition of either TGF-beta or PDGF, depending on the experiment.

A further test relates to TIMP-1. Nature of the test: TIMP-1 production by human skin fibroblasts. It counts as cell-based.
From the text: as §1, §2
Next we created and tested for efficacy, additional CCNp including those with the cysteines intact (native sequence) from CCNp37 and CCNp38 and those that were modified by either shortening the peptide by 1 or 2 amino acids or lengthening by one amino acid. […]

For the next test, the system named is BTBR Ob/Ob mouse. Put plainly: BTBR Ob/Ob mouse as model of liver disease. Type of test: in vivo. The following applies: 8 weeks of treatment. How it is done: This was carried out using the BTBR Ob/Ob mouse strain that has a defective leptin receptor that results in increased appetite. As a result it rapidly gains weight over the control strain and becomes hyperglycemic at about one month of age, going on to develop renal disease resembling that in humans. This is regarded by some to be the rodent model best mirroring renal disease in humans as a complication of diabetes. Animals were treated with either rCCN3 (SEQ. ID. NO: 67) or CCNp38 (SEQ. ID. NO: 38) beginning at 9 weeks of age, when early renal disease has been documented. The disease was allowed to develop for 9 weeks, then treatment started. Mice were treated 3 times per week for 8 weeks. At 17 weeks, blood and urine were collected, and animals sacrificed with organ samples collected. The effect of treatment with either CCN3 (2 concentrations, 2 or 20× the circulating amounts) or mimic peptide (CCNp38, 2 concentrations, 20 or 200× the equivalent molar circulating concentration of CCN3) was tested. Assays to determine the effect of CCN3 or peptide on expression of target fibrosis genes and clinical pathology were determined using methods as previously described (Riser, Amer J Pathology 2009) and (McIntosh, L M, et al., Selective CCR2-targeted macrophage depletion ameliorates experimental mesangioproliferative glomerulonephritis, Clinical and Experimental Immunology, 2008, 155, 295-303).
Since a common complication of diabetes is fatty liver, hepatitis, NASH, and in some cases liver fibrosis, we used the BTBR Ob/Ob mouse experiments described above as a model of human liver disease to examine the possibility that CCN3 or more particularly CCNp peptides might provide a treatment to prevent, treat, or reverse the liver disease described above.

B1: CCN3: full-length recombinant human CCN3 protein (SEQ. ID. No. 67), commercial (Pepro Tech) or made in HEK-293 (protein)
chain: MQVAATQRCPPQCPGRCPATPPTCAPGVRAVLDGCSCCLVCARQRGESCSDLEPCDESSGLYCDRSADPSNQTGICTAVEGDNCVFDGVIYRSGEKFQPSCKFQCTCRDGQIGCVPRCQLDVLLPEPNCPAPRKVEVPGECCEKWICGPDEEDSLGGLTLAAYRPEATLGVEVSDSSVNCIEQTTEWTACSKSCGMGFSTRVTNRNRQCEMLKQTRLCMVRPCEQEPEQPTDKKGKKCLRTKKSLKAIHLQFKNCTSLHTYKPRFCGVCSDGRCCTPHNTKTIQAEFQCSPGQIVKKPVMVIGTCTCHTNCPKNNEAFLQELELKTTRGKM
B1: the “inhibition of cellular adhesion to CCN2 coated plates” value in the test on CCN2 receptor is given as “some inhibition”. Moreover, the “block of PDGF stimulated MMP-1 production” value with MMP-1 (1 nM, FIG. 25) is listed as “able to block little or no MMP-1 production”. For the same molecule, the “reduction in PDGF stimulated MMP-1 production” value in the test on MMP-1 (10 nM, FIG. 26) was determined as 27%; in the test with MMP-1 (100 nM, FIG. 27), 30%. Further, the “block of PDGF-induced increase in MMP-1 activity” value in the test with MMP-1 (PDGF, 10 nM, FIG. 17) was “able to block that increase”. Further, the “effect on MMP-1 with TGF-beta” value in the test on MMP-1 (TGF-beta (no stimulating effect), FIG. 18) is “no effect”. The “block of PDGF stimulated TIMP-1 production” value with TIMP-1 (FIGS. 28-30) is reported as “unable to block the increase in TIMP-1”. Also, the “block of PDGF-induced increase in TIMP-1 production” value in the test with TIMP-1 (PDGF, 10 nM, FIG. 19) is “neither CCNp38-3 (Seq. ID. No. 56) nor CCN3 (SEQ. ID. No. 67) is able to block or reduce the increase in TIMP-1 production”. For the same molecule, the “effect on TIMP-1 production with TGF-beta” value in the test with TIMP-1 (TGF-beta (fails to stimulate), FIG. 20) is on record as “neither CCNp38-3 nor CCN3 have an effect; also recorded: neither CCNp38-3 or CCN3 have an effect”. Also, the “effect on increased liver weight” value in the test on BTBR Ob/Ob mouse (FIG. 41) was “slightly reduces this increase”. In the test on BTBR Ob/Ob mouse (liver, two doses, FIG. 42), the “effect on increased liver mRNA levels for CCN2” value is “greatly reduces or blocks the increase in a dose-dependent manner”. For the same molecule, the “effect on increased liver mRNA levels for Col1A2” value in the test with BTBR Ob/Ob mouse (liver, two doses, FIG. 43) is on record as “dose-dependently reduced, or blocked the increase in collagen expression; also recorded: reduced”.
